Each block holds one binder with its values, some of them ahead of it.
Legend:
Experiment in all cases: holdup assay
Set-up in all cases: key: below the threshold = too weak to quantify, mostly under pKd 3.1 to 4
Settings in all cases: plain residues with an end cap or a label only (N-terminal biotin on a linker: ttds)
APBA2_2, Q99767 = target: T1, APBA2_2, Q99767
T1 sequence (Q99767 654-744, limits assumed, looked up): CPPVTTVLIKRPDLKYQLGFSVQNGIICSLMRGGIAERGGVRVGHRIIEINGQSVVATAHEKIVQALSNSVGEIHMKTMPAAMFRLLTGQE

ARHGEF12, Q9NZN5-2 = target: ARHGEF12, Q9NZN5-2
Chain of ARHGEF12, Q9NZN5-2 (Q9NZN5 other isoform, or with tags, fused parts or gaps): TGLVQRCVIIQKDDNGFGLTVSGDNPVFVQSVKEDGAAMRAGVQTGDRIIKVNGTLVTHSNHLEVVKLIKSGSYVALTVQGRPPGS

CARD11, Q9BXL7 = target: T2, CARD11, Q9BXL7
T2 sequence (Q9BXL7 662-765, limits assumed, looked up): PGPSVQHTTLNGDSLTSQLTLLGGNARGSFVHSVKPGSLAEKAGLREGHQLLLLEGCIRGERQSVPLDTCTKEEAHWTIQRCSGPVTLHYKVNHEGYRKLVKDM

CASK, O14936 = target: CASK, O14936
Chain of CASK, O14936 (O14936 487-570): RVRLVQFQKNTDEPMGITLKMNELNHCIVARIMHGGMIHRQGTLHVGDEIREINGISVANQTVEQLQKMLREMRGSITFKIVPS

DFNB31_1, Q9P202 = target: T3, DFNB31_1, Q9P202
T3 sequence (Q9P202 135-233, limits assumed, looked up): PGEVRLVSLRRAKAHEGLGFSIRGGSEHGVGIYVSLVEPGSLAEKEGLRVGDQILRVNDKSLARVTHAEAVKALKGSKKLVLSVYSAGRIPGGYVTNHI

FRMPD2_2, Q68DX3 = target: FRMPD2_2, Q68DX3
Chain of FRMPD2_2, Q68DX3 (Q68DX3 944-1038): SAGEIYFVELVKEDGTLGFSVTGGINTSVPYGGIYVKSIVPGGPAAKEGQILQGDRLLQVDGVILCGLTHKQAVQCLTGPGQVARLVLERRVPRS

GRID2IP_1, A4D2P6 = target: GRID2IP_1, A4D2P6
Chain of GRID2IP_1, A4D2P6 (A4D2P6 1-87): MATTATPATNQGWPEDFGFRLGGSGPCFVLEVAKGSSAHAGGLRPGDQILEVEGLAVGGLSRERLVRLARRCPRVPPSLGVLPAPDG

GRID2IP_2, A4D2P6 = target: GRID2IP_2, A4D2P6
Chain of GRID2IP_2, A4D2P6 (A4D2P6 272-370): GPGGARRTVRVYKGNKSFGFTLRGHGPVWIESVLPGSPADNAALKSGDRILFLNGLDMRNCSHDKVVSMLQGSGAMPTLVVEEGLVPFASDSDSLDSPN

GRIP1_2, Q9Y3R0 = target: T4, GRIP1_2, Q9Y3R0
T4 sequence (Q9Y3R0 145-248, limits assumed, looked up): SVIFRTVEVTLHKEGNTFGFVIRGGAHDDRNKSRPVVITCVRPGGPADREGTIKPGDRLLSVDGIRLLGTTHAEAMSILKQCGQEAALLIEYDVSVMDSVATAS

GRIP1_3, Q9Y3R0 = target: T5, GRIP1_3, Q9Y3R0
T5 sequence (Q9Y3R0 247-346, limits assumed, looked up): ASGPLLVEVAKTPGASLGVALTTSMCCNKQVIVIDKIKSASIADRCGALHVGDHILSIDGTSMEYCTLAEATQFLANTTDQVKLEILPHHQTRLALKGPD

GRIP1_7, Q9Y3R0 = target: T6, GRIP1_7, Q9Y3R0
T6 sequence (Q9Y3R0 999-1096, limits assumed, looked up): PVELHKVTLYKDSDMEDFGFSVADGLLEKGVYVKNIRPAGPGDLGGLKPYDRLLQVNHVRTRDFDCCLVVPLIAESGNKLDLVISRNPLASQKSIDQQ

GRIP2_4, Q9C0E4 = target: GRIP2_4, Q9C0E4
Chain of GRIP2_4, Q9C0E4 (Q9C0E4 446-548): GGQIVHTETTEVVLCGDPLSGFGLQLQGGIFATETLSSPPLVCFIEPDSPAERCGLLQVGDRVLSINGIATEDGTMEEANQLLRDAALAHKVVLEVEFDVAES

IL16_1, Q14005 = target: IL16_1, Q14005
Chain of IL16_1, Q14005 (Q14005 210-306): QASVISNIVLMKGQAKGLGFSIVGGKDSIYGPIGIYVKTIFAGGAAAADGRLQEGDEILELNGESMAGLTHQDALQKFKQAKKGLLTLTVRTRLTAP

Inadl_6, Q8NI35 = target: Inadl_6, Q8NI35
Chain of Inadl_6, Q8NI35 (Q8NI35 1058-1167): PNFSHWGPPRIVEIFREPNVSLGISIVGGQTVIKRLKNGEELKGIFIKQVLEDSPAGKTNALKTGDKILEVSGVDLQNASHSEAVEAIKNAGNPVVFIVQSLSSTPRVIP

Inadl_9, Q8NI35 = target: Inadl_9, Q8NI35
Chain of Inadl_9, Q8NI35 (Q8NI35 1530-1615): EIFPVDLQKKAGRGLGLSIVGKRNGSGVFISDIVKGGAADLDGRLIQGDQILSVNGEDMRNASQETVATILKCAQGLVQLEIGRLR

LIMK2, P53671 = target: LIMK2, P53671
Chain of LIMK2, P53671 (P53671 143-248): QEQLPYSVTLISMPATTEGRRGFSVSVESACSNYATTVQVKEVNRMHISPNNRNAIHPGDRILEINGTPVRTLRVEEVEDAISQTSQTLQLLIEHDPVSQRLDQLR

LNX1_2, Q8TBB1 = target: LNX1_2, Q8TBB1
Chain of LNX1_2, Q8TBB1 (Q8TBB1 371-470): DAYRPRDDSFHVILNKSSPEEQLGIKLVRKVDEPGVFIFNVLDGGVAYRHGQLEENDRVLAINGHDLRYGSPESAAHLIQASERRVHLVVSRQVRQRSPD

LNX2_3, Q8N448 = target: T7, LNX2_3, Q8N448
T7 sequence (Q8N448 463-564, limits assumed, looked up): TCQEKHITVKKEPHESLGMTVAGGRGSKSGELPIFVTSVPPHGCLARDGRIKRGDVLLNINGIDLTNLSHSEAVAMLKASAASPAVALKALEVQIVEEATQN

MAGI1_1, Q96QZ7 = target: MAGI1_1, Q96QZ7
Chain of MAGI1_1, Q96QZ7 (Q96QZ7 1-106): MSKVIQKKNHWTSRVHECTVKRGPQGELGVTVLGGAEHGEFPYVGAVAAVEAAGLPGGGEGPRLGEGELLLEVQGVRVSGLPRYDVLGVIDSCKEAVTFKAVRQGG

MAGI2_2, Q86UL8 = target: MAGI2_2, Q86UL8
Chain of MAGI2_2, Q86UL8 (Q86UL8 410-522): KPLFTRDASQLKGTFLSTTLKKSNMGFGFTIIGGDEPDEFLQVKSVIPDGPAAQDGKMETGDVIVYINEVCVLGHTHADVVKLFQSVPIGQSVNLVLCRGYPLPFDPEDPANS

MAGI2_5, Q86UL8 = target: MAGI2_5, Q86UL8
Chain of MAGI2_5, Q86UL8 (Q86UL8 915-1017): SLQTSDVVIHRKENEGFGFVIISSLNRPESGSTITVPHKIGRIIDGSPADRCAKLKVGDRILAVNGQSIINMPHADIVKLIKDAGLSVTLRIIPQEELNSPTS

MPDZ_12, O75970 = target: T8, MPDZ_12, O75970
T8 sequence (O75970 1857-1958, limits assumed, looked up): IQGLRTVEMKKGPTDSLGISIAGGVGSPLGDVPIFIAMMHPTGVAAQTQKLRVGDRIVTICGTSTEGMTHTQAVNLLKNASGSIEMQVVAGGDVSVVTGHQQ

NHERF3_3, Q5T2W1 = target: T9, NHERF3_3, Q5T2W1
T9 sequence (Q5T2W1 238-333, limits assumed, looked up): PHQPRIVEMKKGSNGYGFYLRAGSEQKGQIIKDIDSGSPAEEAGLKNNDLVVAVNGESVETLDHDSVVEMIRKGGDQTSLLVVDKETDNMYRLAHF

NHERF4_4, Q86UT5 = target: NHERF4_4, Q86UT5
Chain of NHERF4_4, Q86UT5 (Q86UT5 464-550): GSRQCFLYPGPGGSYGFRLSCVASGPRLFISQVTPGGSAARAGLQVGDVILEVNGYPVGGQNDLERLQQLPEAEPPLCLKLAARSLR

PDLIM1, O00151 = target: PDLIM1, O00151
Chain of PDLIM1, O00151 (O00151 1-87): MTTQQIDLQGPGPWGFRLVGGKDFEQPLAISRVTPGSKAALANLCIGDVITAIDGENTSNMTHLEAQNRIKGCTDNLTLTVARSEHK

RADIL, Q96JH8 = target: T10, RADIL, Q96JH8
T10 sequence (Q96JH8 971-1071, limits assumed, looked up): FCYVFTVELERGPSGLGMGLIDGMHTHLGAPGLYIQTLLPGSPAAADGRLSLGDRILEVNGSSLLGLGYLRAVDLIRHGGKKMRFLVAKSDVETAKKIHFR

SIPA1L2, Q9P2F8 = target: T11, SIPA1L2, Q9P2F8
T11 sequence (Q9P2F8 945-1036, limits assumed, looked up): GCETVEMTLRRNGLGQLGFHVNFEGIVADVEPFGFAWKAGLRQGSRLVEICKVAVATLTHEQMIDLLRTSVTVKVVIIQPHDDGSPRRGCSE

pKd (APBA2_2, Q99767): below the threshold
pKd (ARHGEF12, Q9NZN5-2): 4.94
pKd (CARD11, Q9BXL7): below the threshold
pKd (CASK, O14936): below the threshold
pKd (DFNB31_1, Q9P202): 4.44
pKd (FRMPD2_2, Q68DX3): below the threshold
pKd (GRID2IP_1, A4D2P6): below the threshold
pKd (GRID2IP_2, A4D2P6): 4.29
pKd (GRIP1_2, Q9Y3R0): below the threshold
pKd (GRIP1_3, Q9Y3R0): below the threshold
pKd (GRIP1_7, Q9Y3R0): below the threshold
pKd (GRIP2_4, Q9C0E4): below the threshold
pKd (IL16_1, Q14005): below the threshold
pKd (Inadl_6, Q8NI35): 4.61
pKd (Inadl_9, Q8NI35): below the threshold
pKd (LIMK2, P53671): below the threshold
pKd (LNX1_2, Q8TBB1): below the threshold
pKd (LNX2_3, Q8N448): below the threshold
pKd (MAGI1_1, Q96QZ7): below the threshold
pKd (MAGI2_2, Q86UL8): 4.52
pKd (MAGI2_5, Q86UL8): 3.87
pKd (MPDZ_12, O75970): below the threshold
pKd (NHERF3_3, Q5T2W1): below the threshold
pKd (NHERF4_4, Q86UT5): below the threshold
pKd (PDLIM1, O00151): 3.73
pKd (RADIL, Q96JH8): below the threshold
pKd (SIPA1L2, Q9P2F8): below the threshold
B1: SLCO1C1, Q9NYB5 (peptide)
chain: NYWPGKETQL

pKd (APBA2_2, Q99767): below the threshold
pKd (ARHGEF12, Q9NZN5-2): below the threshold
pKd (CARD11, Q9BXL7): below the threshold
pKd (CASK, O14936): below the threshold
pKd (DFNB31_1, Q9P202): below the threshold
pKd (FRMPD2_2, Q68DX3): below the threshold
pKd (GRID2IP_1, A4D2P6): below the threshold
pKd (GRID2IP_2, A4D2P6): below the threshold
pKd (GRIP1_2, Q9Y3R0): below the threshold
pKd (GRIP1_3, Q9Y3R0): below the threshold
pKd (GRIP1_7, Q9Y3R0): below the threshold
pKd (GRIP2_4, Q9C0E4): below the threshold
pKd (IL16_1, Q14005): 4.66
pKd (Inadl_6, Q8NI35): below the threshold
pKd (Inadl_9, Q8NI35): below the threshold
pKd (LIMK2, P53671): below the threshold
pKd (LNX1_2, Q8TBB1): below the threshold
pKd (LNX2_3, Q8N448): below the threshold
pKd (MAGI1_1, Q96QZ7): below the threshold
pKd (MAGI2_2, Q86UL8): below the threshold
pKd (MAGI2_5, Q86UL8): 3.7
pKd (MPDZ_12, O75970): below the threshold
pKd (NHERF3_3, Q5T2W1): below the threshold
pKd (NHERF4_4, Q86UT5): below the threshold
pKd (PDLIM1, O00151): below the threshold
pKd (RADIL, Q96JH8): below the threshold
pKd (SIPA1L2, Q9P2F8): below the threshold
B2: TANC2, Q9HCD6 (peptide)
chain: PKRPFVESNV

— article PMC9482650, “Quantitative fragmentomics allow affinity mapping of interactomes” (Nature Communications, 2022)
